According to article PMC3251506:

Target: Epstein-Barr virus glycoprotein H / glycoprotein L complex (gH/gL), wild type (Epstein-Barr virus) (UniProt P03231)
Experiment: CELISA

Substance: Epstein-Barr virus glycoprotein 42 (gp42), wild type, soluble form in medium (from UniProt P03205) (natural protein)
- percent decrease of gH/gL binding to HEK 293 cells by soluble gp42: 50%
